In patent US20120172306A1, “Use of HASF as a Protective Agent Against Ischemic Tissue Damage” (Duke University, priority 2009, published 2012):

System: rat myocardial infarction, peri-infarct region
Assay: In vivo ischemia/reperfusion injury, TUNEL staining
Settings: 1 μg intramyocardial, 30 min ischemia/24 h reperfusion
Procedure: FIG. 5B is a series of photographs and a bar graph showing TUNEL staining in control or HASF injected animals from groups described above to detect in vivo apoptosis of cardiomyocytes. Serial cyrosections of 5 μm thick were made immediately below the ligation area, 10 sections for each heart were analyzed, with N=8 rats per group. Sections were counterstained with hematoxylin. Total number of dark-brown color stained apoptotic nuclei were counted and added up blindly in 10 randomly taken fields within the peri-infarct region in each group.
Female Sprague-Dawley rats were used for all in vivo experiments. A midsternal thoracotomy was performed to expose the anterior surface of the heart after anesthesia. The proximal left […] coronary artery (LAD) was identified and a 6.0 suture (Ethicon) was placed around the artery and surrounding myocardium. […]
For TUNEL staining (DeadEnd Colometric TUNEL System, Promega) after 30 min ischemia/24 h reperfusion, serial cyrosections of 5 μm thick were made immediately below the ligation area, 10 sections for each heart were analyzed, with 8 rats in each group. […] Total number of dark-brown color stained apoptotic nuclei were counted and added up blindly in 10 randomly taken fields within the peri-infarct region in each group.

B1: HASF: Hypoxia regulated Akt MSC Factor, secreted protein encoded by C3orf58; recombinant human protein without N-signal sequence, SEQ ID NO:1 or 2 (protein, UniProt Q8NDZ4 36-430, looked up)
Divergent protein kinase …: LASWQRNELTDRRFLQLNKCPACFGTSWCRRFLNGQVVFEAWGRLRLLDFLNVKNVYFAQYGEPREGGRRRVVLKRLGSQRELAQLDQSICKRATGRPRCDLLQAMPRTEFARLNGDVRLLTPEAVEGWSDLVHCPSQRLLDRLVRRYAETKDSGSFLLRNLKDSERMQLLLTLAFNPEPLVLQSFPSDEGWPFAKYLGACGRMVAVNYVGEELWSYFNAPWEKRVDLAWQLMEIAEQLTNNDFEFALYLLDVSFDNFAVGPRDGKVIIVDAENVLVADKRLIRQNKPENWDVWYESKFDDCDKEACLSFSKEILCARATVDHNYYAVCQNLLSRHATWRGTSGGLLHDPPSEIAKDGRLEALLDECANPKKRYGRFQAAKELREYLAQLSNNVR
modifications: 6xHis tag
- reduction of the number of TUNEL positive nuclei: ~69%
